# T1: N-terminal domain of GpsB (GpsB 1-75) (S. aureus, UniProt Q2FYI5 1-75)
# T1 construct: GpsB, S. aureus, amino acids 1-75 (N-terminal domain); source: E. coli BL21 (DE3), purified (Ni-NTA, SUMO protease, second Ni-NTA); not shown: His, N-terminal, cleaved; SUMO, N-terminal, cleaved
# T1 sequence (looked up): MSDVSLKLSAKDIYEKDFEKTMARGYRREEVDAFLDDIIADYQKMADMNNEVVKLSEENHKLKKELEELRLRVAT
# B1: His-SUMO fusion bearing a 3x concatenation of residues 127-146 of FacZ (native motif NRHYRR) (domain or fragment)
# chain: EIADKWQNRHYRRGSANYKAGSAGEIADKWQNRHYRRGSANYKAGSAGEIADKWQNRHYRRGSANYKA
# notes: FacZ (factor preventing extra Z-rings), S. aureus, residues 127-146, first of three repeats; linker; FacZ, S. aureus, residues 127-146, second repeat; FacZ, S. aureus, residues 127-146, third repeat; The methods call the stretch 127-145, the results and legends 127-146; also called SUMO-3x-FacZ (127-146); His-SUMO-FacZ_(127-145); source: E. coli BL21 (DE3), purified (Ni-NTA); not shown: His, …
# Target: T1, N-terminal domain of GpsB (GpsB 1-75)
# Test: SEC; GpsB(1-75) at 90 uM mixed with SUMO-FacZ at 30 uM in 500 ul, salt 150-200 mM; Superdex75 Increase 10/300 in 20 mM HEPES pH 7.6, 100 mM NaCl, 1 mM DTT, 0.5 ml/min
# Conditions: both partners purified
binder,measurement,value
B1,binding result,binds

# Source: paper PMC10914604, “FacZ is a GpsB-interacting protein that prevents aberrant division-site placement in Staphylococcus aureus” (Nature Microbiology, 2024)
